B1: 6H8: anti-HSP90 monoclonal antibody produced by hybridoma FERM BP-11222; epitope … (antibody)
VH: QVQLQQSGPELVKPGASVRISCKASGYTFTSYYIHWVKQRPGQGLEWIGWIYPGNVNTKYNEKFKGKATLTADKSSSTAYMQLSSLTSEDSAVYFCARYGNYPFAYWGQGTLVTVSAAKTTAPSVYPLAPVCGDTTGSSVTLGCLVKGYF
VL: DVVMTQTPLSLPVSLGDQASISCRSSQSLVHSNGNTYLHWYLQKPGQSPKLLIYKVSNRFSGVPDRFSGSGSGTDFTLKISRVEAEDLGVYFCSQSTHVPPTFGGGTKLEIKRADAAPTVSIFPPSSEQLTSGGASVVCFLNNFYPKDINVKWKIDGS
B2: 6H8-OVA: high molecular weight conjugate of the 6H8 antibody and maleimide-activated OVA (conjugate)
VH: B1 VH
VL: B1 VL
chain: GSIGAASMEFCFDVFKELKVHHANENIFYCPIAIMSALAMVYLGAKDSTRTQINKVVRFDKLPGFGDSIEAQCGTSVNVHSSLRDILNQITKPNDVYSFSLASRLYAEERYPILPEYLQCVKELYRGGLEPINFQTAADQARELINSWVESQTNGIIRNVLQPSSVDSQTAMVLVNAIVFKGLWEKAFKDEDTQAMPFRVTEQESKPVQMMYQIGLFRVASMASEKMKILELPFASGTMSMLVLLPDEVSGLEQLESIINFEKLTEWTSSNVMEERKIKVYLPRMKMEEKYNLTSVLMAMGITDVFSSSANLSGISSAESLKISQAVHAAHAEINEAGREVVGSAEAGVDAASVSEEFRADHPFLFCIKHIATNAVLFFGRCVSP

Columns and labels:
[1] = tested on: cell surface HSP90 on DC2.4 cells; experiment: Inhibition of 6H8-OVA cross-presentation by pre-treatment of DC2.4 cells with antibodies; assay type: cell-based; conditions: antibody 20 μg/ml 15 minutes, then 6H8-OVA 3 or 1 μg/ml, IFNγ ELISA
Method: Pellets of DC2.4 cells (1.5×10^6 cells) were incubated with 20 μg/ml of each antibody [6H8D2 (6H8), 2A6E9 (2A6) or 4B6G12 (456)] at 37° C. with 5% CO2 for 15 minutes. Subsequently, 6H8-OVA was added to a concentration of 3 or 1 μg/ml, and the pellets were incubated at 37° C. with 5% CO2 for 3 hours. After being washed to remove the unreacted antibody and 6H8-OVA, the cells were fixed in 0.5% para-formaldehyde. These cells (1×10^4 cells) were co-cultured with 1×10^5 OT-I CD8^+ T cells in a 96-well round-bottomed plate at 37° C. with 5% CO2; the supernatant was recovered as appropriate and assayed for IFNγ according to a standard ELISA method.

OT-I CD8+ T cells = experiment: In vivo OT-I CD8+ T cell proliferation by 6H8-OVA after 6H8 antibody given in advance; parameters: species or system mouse; conditions: 6H8 antibody 20 μg in advance, 6H8-OVA (0.3 mg), tail vein, 72 hours
Method: The 6H8 antibody or IgG2a [normal mouse IgG2a (nmIgG2a), 20 μg] was diluted with 200 μl of PBS and administered to B6 mice from the tail vein. As a control, a group of animals that received PBS alone was also prepared.
Subsequently, CFSE-labeled OT-I CD8^+ T cells ([…]) were suspended in 200 μl of RPMI and administered from the tail vein. Concurrently, 6H8-OVA (0.3 mg) diluted with 200 μl of PBS was administered from the tail vein. As a control, a group of animals that received PBS alone was also prepared.
72 hours later, splenocytes were recovered from each recipient mouse, and decay of CFSE intensity were measured using FACS Calibur (BD Biosciences) to confirm the proliferation of transferred cells.

[2] = tested on: cytotoxic T cells specific for OVA257-264 epitope; experiment: Induction of OVA257-264-specific cytotoxic T cells by immunization (tetramer staining, 51Cr release); assay type: in vivo; conditions: 3 μg per mouse
Method: The mice were immunized twice at a 1-week interval. One week after second immunization, splenocytes were cultured in the presence of the OVA257-264 peptide for 5 days. The resulting cytotoxic T cells were monitored by tetramer staining [T cells were stained using T-Select H-2K^b OVA Tetramer-[…]-PE (MBL, TS5001-1, amount used=1 test/tube) at room temperature for 30 minutes], and standard ^51Cr release assay [2×10^6 each of mouse tumor cells E.G7, supplied by Dr. Michael Bevan at the University of Washington, U.S.A. (see Cell vol. 54:777-785, 1988), and EL4 (purchased from ATCC) were labeled with 50 microcuries of sodium ^51Cr, and used as the target cells; the cytotoxic T cells were added to 5×10^3 target cells as indicated in FIG. 8E; after cultivation for 4 hours, free ^51Cr in the supernatant was measured to calculate the cytotoxic activity; the EL4 cells with or without pulsing with the peptide OVA257-264 were prepared].

specific CTL = experiment: Specific CTL induction in immunized mice, comparison with IFA+OVA257-264; assay type: in vivo, mouse; conditions: immunized twice at 1-week interval, tail vein; tetramer-positive cells in CD8-positive cells
Method: Mice were immunized twice with 6H8-OVA or IFA+OVA at a 1-week interval. For 6H8-OVA, the specified amount of 6H8-OVA was diluted in 200 μl of PBS and administered from the tail vein. For IFA+OVA, an emulsion was prepared so that the specified amount of OVA257-264 peptide would be contained in the 200 μl dose, and subcutaneously administered. The emulsion was prepared by mixing the required amount of the OVA257-264 peptide in PBS in advance, and adding an equal amount of IFA (SIGMA: F5506) thereto.
Seven days after final immunization, the spleen of each recipient mouse was collected and finely loosened using tweezers, and splenocytes were recovered. A pellet of splenocytes was prepared in a 15-ml tube, and 2 ml of an FCS-free complete RPMI containing the OVA257-264 peptide (final concentration 10^−5 M) was added thereto. With the lid of the tube loosened, the tube was allowed to stand in an incubator at 37° C. with 5% CO2 for 1 hour. Subsequently, the culture broth RPMI (containing 10% FCS) was added to adjust the total volume to 20 ml, and 2 ml each was put into a 24-well plate.
After 5 days of cultivation, the cells were recovered and stained using the H-2K^b+OVA257-264-specific tetramer (MBL: TS-5001-1) and FITC-anti-mouse CD8a (eBioscience: 11-0081), and induction of specific CTL was confirmed using FACS Canto. […]

Row | Molecule | effect of antibody pre-treatment on the cross-presentation effect of 6H8-OVA [1] | effect on promotion of proliferation of CD8+ T cells by 6H8-OVA (OT-I CD8+ T cells) | tetramer-positive cells after immunization ([2]; twice at 1-week interval, splenocytes cultured with OVA257-264 5 days) | cytotoxicity in 51Cr release assay ([2]; twice, target cells E.G7, EL4 with or without OVA257-264) | CTL induction compared with IFA+OVA (specific CTL)
1 | B1 | attenuated | enhanced |  |  | 
2 | B2 |  |  | produced tetramer-positive cells | cytotoxicity to OVA257-264 epitope was also observed | as effective as, or more effective than, IFA+OVA

Source: patent US20110280881A1, “NOVEL ANTI-HSP90 MONOCLONAL ANTIBODY” (RIKEN, priority 2010, published 2011)
